# Measurements reported in paper PMC5704011.
# B1: human recombinant PDGF-CC, Q9NRA1 23-345 (ligand)
# chain: VVDLNLLTEEVRLYSCTPRNFSVSIREELKRTDTIFWPGCLLVKRCGGNCACCLHNCNECQCVPSKVTKKYHEVLQLRPKTGVRGLHKSLTDVALEHHEECDCVCRGSTGG
# modifications: here or on the partner: disulfide-linked homodimer; limits not given, active growth factor domain after cleavage at Arg234 taken by convention
# B2: human recombinant PDGF-CC, Q9NRA1 235-345 (ligand)
# chain: VVDLNLLTEEVRLYSCTPRNFSVSIREELKRTDTIFWPGCLLVKRCGGNCACCLHNCNECQCVPSKVTKKYHEVLQLRPKTGVRGLHKSLTDVALEHHEECDCVCRGSTGG
# Tests used:
# Conditions in all cases: remark: other sources report otherwise
# [1] = molecular target: T1, human recombinant VEGFR2 (human), P35968; assay: SPR; BIAcore 3000, 25 °C, CM5 chip; receptor immobilised by amine coupling (~200-500 R.U.); ligand injected at 10, 20 and 40 nM, 30 uL/min, 10 min dissociation; HBS-EP pH 7.4 (10 mM HEPES, 3 mM EDTA, 150 mM NaCl, 0.005% TWEEN-20); angiopoietin-4 reference cell subtracted; global 1:1 Langmuir fit; χ2-to-Rmax > 1.0 or negative association curves taken as no true interaction
# T1 chain: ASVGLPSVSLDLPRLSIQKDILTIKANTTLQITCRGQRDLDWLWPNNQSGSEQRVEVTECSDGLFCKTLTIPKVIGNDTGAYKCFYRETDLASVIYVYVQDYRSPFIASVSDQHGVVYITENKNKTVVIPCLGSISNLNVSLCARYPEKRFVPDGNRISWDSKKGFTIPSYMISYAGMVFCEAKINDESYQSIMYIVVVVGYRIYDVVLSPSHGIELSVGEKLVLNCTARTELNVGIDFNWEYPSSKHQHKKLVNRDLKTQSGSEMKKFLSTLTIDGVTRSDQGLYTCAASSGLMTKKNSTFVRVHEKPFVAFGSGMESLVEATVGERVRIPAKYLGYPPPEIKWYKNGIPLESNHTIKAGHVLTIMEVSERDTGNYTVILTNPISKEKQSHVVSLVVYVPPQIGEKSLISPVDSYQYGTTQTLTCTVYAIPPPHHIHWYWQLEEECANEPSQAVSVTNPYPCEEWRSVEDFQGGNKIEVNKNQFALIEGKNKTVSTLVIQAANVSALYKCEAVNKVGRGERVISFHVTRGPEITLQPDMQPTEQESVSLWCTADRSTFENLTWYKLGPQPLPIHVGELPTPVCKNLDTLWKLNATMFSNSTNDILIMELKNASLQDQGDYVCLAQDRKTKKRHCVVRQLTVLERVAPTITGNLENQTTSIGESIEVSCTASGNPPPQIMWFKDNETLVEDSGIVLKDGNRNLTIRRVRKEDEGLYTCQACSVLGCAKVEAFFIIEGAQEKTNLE
# [2] = molecular target: T2, human recombinant PDGFRβ (human), P09619; assay: SPR; BIAcore 3000, 25 °C, CM5 chip; receptor immobilised by amine coupling (~200-500 R.U.); ligand injected at 40, 20 and 10 nM in HBS-EP pH 7.4 (10 mM HEPES, 3 mM EDTA, 150 mM NaCl, 0.005% TWEEN-20); angiopoietin-4 reference cell subtracted; global 1:1 Langmuir fit; χ^2-to-Rmax < 1.0 taken as a true interaction
# T2 chain: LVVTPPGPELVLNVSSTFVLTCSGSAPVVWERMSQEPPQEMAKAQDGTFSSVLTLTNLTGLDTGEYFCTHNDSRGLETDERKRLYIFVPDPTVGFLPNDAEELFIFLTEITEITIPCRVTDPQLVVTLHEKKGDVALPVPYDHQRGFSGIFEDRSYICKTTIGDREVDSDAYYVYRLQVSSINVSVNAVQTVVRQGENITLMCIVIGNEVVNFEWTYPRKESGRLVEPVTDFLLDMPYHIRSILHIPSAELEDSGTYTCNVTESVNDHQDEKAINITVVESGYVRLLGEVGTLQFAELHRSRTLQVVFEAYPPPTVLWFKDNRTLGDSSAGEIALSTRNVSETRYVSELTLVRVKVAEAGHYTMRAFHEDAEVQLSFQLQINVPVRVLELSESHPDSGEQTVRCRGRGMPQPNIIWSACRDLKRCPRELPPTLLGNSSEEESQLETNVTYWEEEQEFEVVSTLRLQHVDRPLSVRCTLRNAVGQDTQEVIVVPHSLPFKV
# [3] = molecular target: T1, human recombinant VEGFR2 (human), P35968; assay: as above
Binder,koff [1],kon [1],Kd [2],Kd [3]
B1,2.6e-05 s⁻¹,36000 M⁻¹ s⁻¹,,
B2,,,1.9 nM,0.07 nM
